Where no end group is shown, it is not given here.
Legend:
[1] = biological target: T1, reduced p38α (MAPK14), recombinant mouse protein kept with reducing agent (DTT or TCEP) (mouse, UniProt P47811 1-360); test: ITC
[2] = biological target: T1, reduced p38α (MAPK14), recombinant …; test: ITC; oxidized p38α re-reduced by dialysis with TCEP

T1 sequence (P47811 whole entry): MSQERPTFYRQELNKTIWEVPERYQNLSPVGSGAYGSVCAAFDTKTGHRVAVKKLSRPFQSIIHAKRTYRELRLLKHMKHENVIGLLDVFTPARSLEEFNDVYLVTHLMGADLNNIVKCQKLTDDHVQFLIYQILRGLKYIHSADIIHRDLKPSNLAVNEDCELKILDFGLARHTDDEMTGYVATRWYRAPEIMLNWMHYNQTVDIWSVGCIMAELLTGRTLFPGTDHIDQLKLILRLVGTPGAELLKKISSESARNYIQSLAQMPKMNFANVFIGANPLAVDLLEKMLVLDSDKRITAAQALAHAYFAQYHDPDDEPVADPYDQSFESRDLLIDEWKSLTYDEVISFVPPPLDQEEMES

Kd [1]: 1200 nM
Kd [2]: 2660 nM
Binder: RVYPVSVPYSSAQSTSKTSVTLSLVMPSQ (also: FITC label, end not given here) [FITC-TAB1 peptide (amino acids 384-412 of TAB1)]
